Where “and” joins values, the source holds several entries; their conditions need not be identical. Identical values can stand only once.
Columns and labels:
Human CLEC12A-His = biological target: T1, Human CLEC12A-His (human, UniProt Q5QGZ9 65-265); assay: SPR Biacore 8K 37 C; TriNKET captured on anti-hFc chip, hCLEC12A-His as analyte; 1:1 fit; control sample, n=2
T1 construct: Recombinant soluble protein made in house (Dragonfly Tx); The hCLEC12A spot of the HuProt array is written under this molecule as well; also called hCLEC12A-His; hCLEC12A; not shown: His tag
T1 sequence: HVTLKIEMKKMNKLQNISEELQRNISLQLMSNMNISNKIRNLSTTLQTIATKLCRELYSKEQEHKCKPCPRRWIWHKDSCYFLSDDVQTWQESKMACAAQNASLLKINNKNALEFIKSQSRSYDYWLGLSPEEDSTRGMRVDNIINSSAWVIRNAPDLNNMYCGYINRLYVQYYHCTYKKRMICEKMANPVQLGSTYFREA

mFc-hNKG2D = biological target: T2, mFc-hNKG2D (human, UniProt P26718 73-216); assay: SPR Biacore 8K 37 C; mFc-hNKG2D captured on anti-mFc chip, TriNKET as analyte; 1:1 kinetic fit; after 0.02% H2O2 24 h
T2 construct: extracellular domain; Made in house (Dragonfly Tx); the order of tag and ECD follows the name mFc-hNKG2D; also called mFc-tagged human NKG2D; not shown: mouse Fc tag
T2 sequence (looked up): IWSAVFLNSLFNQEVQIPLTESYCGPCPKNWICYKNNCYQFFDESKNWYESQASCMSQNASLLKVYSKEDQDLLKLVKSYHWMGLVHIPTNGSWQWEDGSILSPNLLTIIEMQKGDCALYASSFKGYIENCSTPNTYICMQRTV

Cynomolgus CD64 = biological target: T3, Cynomolgus CD64 (cynomolgus monkey, UniProt A0A2K5U901 33-309, Probably biotinylated for capture, as in the sister examples (p-1094).); assay: SPR, cynomolgus CD64 captured
T3 construct: Bought recombinant receptor; also called cFcγRI; Cynomolgus CD64 (FcγRI); not shown: The vendor's biotinylation and purification tag
T3 sequence (A0A2K5U901 entry or part of it limits assumed): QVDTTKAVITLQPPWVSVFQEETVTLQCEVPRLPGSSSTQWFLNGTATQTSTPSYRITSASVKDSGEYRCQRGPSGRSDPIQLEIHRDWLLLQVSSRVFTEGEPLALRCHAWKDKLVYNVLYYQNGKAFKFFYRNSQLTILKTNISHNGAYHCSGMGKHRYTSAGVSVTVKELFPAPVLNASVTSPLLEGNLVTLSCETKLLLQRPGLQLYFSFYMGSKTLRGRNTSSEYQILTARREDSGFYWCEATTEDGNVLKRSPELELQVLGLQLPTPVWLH

[1] = biological target: T4, recombinant human CD32a R131 (human, UniProt P12318 36-218, limits assumed, biotinylated); assay: SPR 25C, steady state, average
T4 construct: also called FcγRIIa R131
T4 sequence (looked up): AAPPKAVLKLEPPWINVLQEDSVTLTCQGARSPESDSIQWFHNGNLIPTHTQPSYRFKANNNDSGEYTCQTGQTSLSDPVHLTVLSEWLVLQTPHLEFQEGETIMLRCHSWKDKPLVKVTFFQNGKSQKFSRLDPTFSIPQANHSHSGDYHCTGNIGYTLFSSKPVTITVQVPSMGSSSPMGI

[2] = biological target: T5, recombinant human CD16a V158 (human, UniProt P08637 17-208, biotinylated); assay: SPR, summary table
T5 construct: also called FcγRIIIa V158; hCD16aV
T5 sequence (P08637 17-208 F176V limits assumed): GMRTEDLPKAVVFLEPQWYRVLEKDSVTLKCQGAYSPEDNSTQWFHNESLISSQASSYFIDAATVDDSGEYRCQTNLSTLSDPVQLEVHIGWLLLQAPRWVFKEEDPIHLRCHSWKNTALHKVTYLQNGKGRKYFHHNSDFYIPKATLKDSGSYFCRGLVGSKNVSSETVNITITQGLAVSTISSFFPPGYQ
From the text: (§1) Human and cyno CD64, high and low affinity alleles of CD16a (V158 and F158, respectively), two alleles of CD32a (H131 and R131), CD16b, CD32b and cynomolgus CD16 were captured via biotin on a primed Biacore chip, prepared according to the manufacturer's instructions.

[3] = biological target: T6, recombinant cynomolgus CD64 (cynomolgus monkey, UniProt A0A2K5U901 33-309, Biotinylated for capture on the CAP chip; the biotin site is not stated.); assay: SPR, summary table
T6 construct: also called cFcγRI; cyno CD64; not shown: The vendor's biotinylation and purification tag, used for capture via biotin
T6 sequence (A0A2K5U901 entry or part of it limits assumed): as the sequence (A0A2K5U901 entry or part of it limits assumed) above

recombinant human CD16b = biological target: T7, recombinant human CD16b (human, UniProt O75015 17-200, limits assumed, biotinylated); assay: SPR, summary table
T7 construct: also called FcγRIIIb
T7 sequence (O75015 17-200 limits assumed): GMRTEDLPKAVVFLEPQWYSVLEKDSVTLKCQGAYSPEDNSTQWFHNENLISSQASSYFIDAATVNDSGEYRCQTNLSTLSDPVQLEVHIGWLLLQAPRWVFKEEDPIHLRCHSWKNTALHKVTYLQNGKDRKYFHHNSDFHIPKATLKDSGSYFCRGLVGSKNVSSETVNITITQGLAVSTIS
From the text: as §1

[4] = biological target: T8, recombinant cynomolgus CD16 (cynomolgus monkey, UniProt Q8SPW2 17-208, biotinylated); assay: SPR, summary table
T8 construct: also called cFcγRIII; cyno CD16
T8 sequence (Q8SPW2 17-208 limits assumed): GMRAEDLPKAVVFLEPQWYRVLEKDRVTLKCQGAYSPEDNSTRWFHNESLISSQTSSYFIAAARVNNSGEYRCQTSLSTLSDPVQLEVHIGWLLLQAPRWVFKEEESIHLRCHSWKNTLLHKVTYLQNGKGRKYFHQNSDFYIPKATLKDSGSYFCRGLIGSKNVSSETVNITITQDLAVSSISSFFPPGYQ
From the text: as §1

[5] = biological target: T9, recombinant human CD16a F158 (human, UniProt P08637 17-208); assay: SPR, summary table
T9 construct: also called FcγRIIIa F158
T9 sequence (P08637 17-208 limits assumed): as the sequence (P08637 17-208 F176V limits assumed) above, with V160F counted along it
From the text: as §1

[6] = biological target: T4, recombinant human CD32a R131; assay: SPR, summary table
From the text: as §1

B1: F3'-1602 TriNKET (bispecific antibody, human IgG1, kappa)
chain: QLQLQESGPGLVKPSETLSLTCTVSGFSLTNYGLHWIRQPPGKCLEWIGVIWSGGKTDYNPSLKSRVTISKDTSKNQFSLKLSSVQAADTAVYYCAKYDYDDSLDYWGQGTLVTVSSGGGGSGGGGSGGGGSGGGGSDIQMTQSPSSLSASVGDRVTITCHASQNINFWLSWYQQKPGKAPKLLIYEASNLHTGVPSRFSGSGSGTRFTLTISSLQPEDIATYYCQQSHSYPLTFGCGTKLEIKGSDKTHTCPPCPAPELLGGPSVFLFPPKPKDTLMISRTPEVTCVVVDVSHEDPEVKFNWYVDGVEVHNAKTKPREEQYNSTYRVVSVLTVLHQDWLNGKEYKCKVSNKALPAPIEKTISKAKGQPREPRVYTLPPCRDELTKNQVSLTCLVKGFYPSDIAVEWESNGQPENNYKTTPPVLVSDGSFTLYSKLTVDKSRWQQGNVFSCSVMHEALHNHYTQKSLSLSPG
heavy: EVQLVESGGGLVKPGGSLRLSCAASGFTFSSYSMNWVRQAPGKGLEWVSSISSSSSYIYYADSVKGRFTISRDNAKNSLYLQMNSLRAEDTAVYYCARGAPIGAAAGWFDPWGQGTLVTVSSASTKGPSVFPLAPSSKSTSGGTAALGCLVKDYFPEPVTVSWNSGALTSGVHTFPAVLQSSGLYSLSSVVTVPSSSLGTQTYICNVNHKPSNTKVDKKVEPKSCDKTHTCPPCPAPELLGGPSVFLFPPKPKDTLMISRTPEVTCVVVDVSHEDPEVKFNWYVDGVEVHNAKTKPREEQYNSTYRVVSVLTVLHQDWLNGKEYKCKVSNKALPAPIEKTISKAKGQPREPQVCTLPPSRDELTENQVSLTCLVKGFYPSDIAVEWESNGQPENNYKTTPPVLDSDGSFFLYSWLTVDKSRWQQGNVFSCSVMHEALHNHYTQKSLSLSPG
light: DIQMTQSPSSVSASVGDRVTITCRASQGISSWLAWYQQKPGKAPKLLIYAASSLQSGVPSRFSGSGSGTDFTLTISSLQPEDFATYYCQQGVSFPRTFGGGTKVEIKRTVAAPSVFIFPPSDEQLKSGTASVVCLLNNFYPREAKVQWKVDNALQSGNSQESVTEQDSKDSTYSLSSTLTLSKADYEKHKVYACEVTHQGLSSPVTKSFNRGEC
notes: Trispecific F3' format: CLEC12A scFv-Fc paired with NKG2D Fab-Fc; Stressed and control samples of the stability studies are the same molecule; also called AB0237
Human CLEC12A-His
  Kd: 1.2 nM
  koff: 0.000933 s⁻¹
  kon: 779000 M⁻¹ s⁻¹
mFc-hNKG2D
  Kd: 722 nM
  koff: 0.107 s⁻¹
  kon: 148000 M⁻¹ s⁻¹

B2: AB0192 TriNKET (other)
chain: EVQLVESGGGVVQPGGSLRLSCAASGFTFNAFGMHWVRQAPGKCLEWVAFISSGSTSIYYANTVKGRFTISRDNSKNTLYLQMNSLRAEDTAVYYCARDGYPTGGAMDYWGQGTSVTVSSGGGGSGGGGSGGGGSGGGGSDIQMTQSPSSLSASVGDRVTITCKASQDIYNYLSWFQQKPGKAPKPLIYRANILVSGVPSRFSGSGSGQDYTFTISSLQPEDIATYYCLQFDAFPFTFGCGTKLEIKGSDKTHTCPPCPAPELLGGPSVFLFPPKPKDTLMISRTPEVTCVVVDVSHEDPEVKFNWYVDGVEVHNAKTKPREEQYNSTYRVVSVLTVLHQDWLNGKEYKCKVSNKALPAPIEKTISKAKGQPREPRVYTLPPCRDELTKNQVSLTCLVKGFYPSDIAVEWESNGQPENNYKTTPPVLVSDGSFTLYSKLTVDKSRWQQGNVFSCSVMHEALHNHYTQKSLSLSPG
heavy: EVQLVESGGGLVKPGGSLRLSCAASGFTFSSYSMNWVRQAPGKGLEWVSSISSSSSYIYYADSVKGRFTISRDNAKNSLYLQMNSLRAEDTAVYYCARGAPIGAAAGWFDPWGQGTLVTVSSASTKGPSVFPLAPSSKSTSGGTAALGCLVKDYFPEPVTVSWNSGALTSGVHTFPAVLQSSGLYSLSSVVTVPSSSLGTQTYICNVNHKPSNTKVDKKVEPKSCDKTHTCPPCPAPELLGGPSVFLFPPKPKDTLMISRTPEVTCVVVDVSHEDPEVKFNWYVDGVEVHNAKTKPREEQYNSTYRVVSVLTVLHQDWLNGKEYKCKVSNKALPAPIEKTISKAKGQPREPQVCTLPPSRDELTENQVSLTCLVKGFYPSDIAVEWESNGQPENNYKTTPPVLDSDGSFFLYSWLTVDKSRWQQGNVFSCSVMHEALHNHYTQKSLSLSPG
light: DIQMTQSPSSVSASVGDRVTITCRASQGISSWLAWYQQKPGKAPKLLIYAASSLQSGVPSRFSGSGSGTDFTLTISSLQPEDFATYYCQQGVSFPRTFGGGTKVEIKRTVAAPSVFIFPPSDEQLKSGTASVVCLLNNFYPREAKVQWKVDNALQSGNSQESVTEQDSKDSTYSLSSTLTLSKADYEKHKVYACEVTHQGLSSPVTKSFNRGEC
notes: the condition stands under assay; also called AB0192 Lot AB0192-005
Cynomolgus CD64
  Kd: 2.2 nM and 1.5 nM and 1.9 nM and 2.1 nM
  koff: 0.00012 s⁻¹ and 0.00011 s⁻¹
  kon: 54000 M⁻¹ s⁻¹ and 80000 M⁻¹ s⁻¹ and 57000 M⁻¹ s⁻¹ and 55000 M⁻¹ s⁻¹

B3: F3'-1602 TriNKET (other)
chain: QLQLQESGPGLVKPSETLSLTCTVSGFSLTNYGLHWIRQPPGKCLEWIGVIWSGGKTDYNPSLKSRVTISKDTSKNQFSLKLSSVQAADTAVYYCAKYDYDDSLDYWGQGTLVTVSSGGGGSGGGGSGGGGSGGGGSDIQMTQSPSSLSASVGDRVTITCHASQNINFWLSWYQQKPGKAPKLLIYEASNLHTGVPSRFSGSGSGTRFTLTISSLQPEDIATYYCQQSHSYPLTFGCGTKLEIKGSDKTHTCPPCPAPELLGGPSVFLFPPKPKDTLMISRTPEVTCVVVDVSHEDPEVKFNWYVDGVEVHNAKTKPREEQYNSTYRVVSVLTVLHQDWLNGKEYKCKVSNKALPAPIEKTISKAKGQPREPRVYTLPPCRDELTKNQVSLTCLVKGFYPSDIAVEWESNGQPENNYKTTPPVLVSDGSFTLYSKLTVDKSRWQQGNVFSCSVMHEALHNHYTQKSLSLSPG
heavy: EVQLVESGGGLVKPGGSLRLSCAASGFTFSSYSMNWVRQAPGKGLEWVSSISSSSSYIYYADSVKGRFTISRDNAKNSLYLQMNSLRAEDTAVYYCARGAPIGAAAGWFDPWGQGTLVTVSSASTKGPSVFPLAPSSKSTSGGTAALGCLVKDYFPEPVTVSWNSGALTSGVHTFPAVLQSSGLYSLSSVVTVPSSSLGTQTYICNVNHKPSNTKVDKKVEPKSCDKTHTCPPCPAPELLGGPSVFLFPPKPKDTLMISRTPEVTCVVVDVSHEDPEVKFNWYVDGVEVHNAKTKPREEQYNSTYRVVSVLTVLHQDWLNGKEYKCKVSNKALPAPIEKTISKAKGQPREPQVCTLPPSRDELTENQVSLTCLVKGFYPSDIAVEWESNGQPENNYKTTPPVLDSDGSFFLYSWLTVDKSRWQQGNVFSCSVMHEALHNHYTQKSLSLSPG
light: DIQMTQSPSSVSASVGDRVTITCRASQGISSWLAWYQQKPGKAPKLLIYAASSLQSGVPSRFSGSGSGTDFTLTISSLQPEDFATYYCQQGVSFPRTFGGGTKVEIKRTVAAPSVFIFPPSDEQLKSGTASVVCLLNNFYPREAKVQWKVDNALQSGNSQESVTEQDSKDSTYSLSSTLTLSKADYEKHKVYACEVTHQGLSSPVTKSFNRGEC
notes: CLEC12A scFv-Fc, NKG2D A49MI Fab-Fc, human IgG1 Fc; also called AB0237
[1]
  Kd: 1400 nM
[2]
  Kd: 238 nM
[3]
  Kd: 2 nM
Recombinant human CD16b
  Kd: 7500 nM
[4]
  Kd: 306 nM
[5]
  Kd: 1110 nM
[6]
  Kd: 1400 nM
